This data set addresses Gus (beta-glucuronidase) control (UniProt P05804 P05804:1-603). Nature of the data set: MITOMI Gus-his negative control. The note with it: tags: C-terminal 6xHis (Roche Gus-his vector); label: Cy3.

Chain of Gus (beta-glucuronidase) control (P05804 whole entry, one chain of several): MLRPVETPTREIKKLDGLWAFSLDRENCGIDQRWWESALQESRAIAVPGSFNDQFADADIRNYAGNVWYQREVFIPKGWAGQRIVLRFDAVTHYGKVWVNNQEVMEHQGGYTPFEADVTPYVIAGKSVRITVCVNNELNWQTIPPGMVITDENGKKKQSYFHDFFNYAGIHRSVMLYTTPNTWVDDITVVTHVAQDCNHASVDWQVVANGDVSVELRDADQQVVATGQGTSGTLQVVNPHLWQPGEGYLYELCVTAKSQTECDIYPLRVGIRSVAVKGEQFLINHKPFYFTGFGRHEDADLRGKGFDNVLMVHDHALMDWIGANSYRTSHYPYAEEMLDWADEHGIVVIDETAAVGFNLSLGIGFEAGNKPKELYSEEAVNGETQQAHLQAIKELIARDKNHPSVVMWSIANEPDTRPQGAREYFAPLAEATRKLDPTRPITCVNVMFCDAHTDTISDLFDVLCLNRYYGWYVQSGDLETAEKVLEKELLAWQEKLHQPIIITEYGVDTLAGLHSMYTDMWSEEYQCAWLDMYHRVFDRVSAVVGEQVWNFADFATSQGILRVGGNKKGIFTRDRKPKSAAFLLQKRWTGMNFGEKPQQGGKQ
Text: For each experiment, an image was taken after MITOMI and the final PBS wash. This was used to determine the concentration of surface bound protein (FITC channel) as well as surface bound target RNA (Cy3 channel). […] Data from multiple data points were averaged, and their standard deviations calculated. Results were then normalized to 1. Between 10-20 replicates were included for each probe tested. A control protein, Gus-his (Roche) was included in each experiment and subjected to the same analysis. When present, detected signal with Gus-his was used for background subtraction.
A microarray of Cy3-labeled target RNA sequences was used to program a microfluidic device, and binding of bodiby-labeled proteins expressed on the device to the RNA sequences was assayed. Results represent the ratio of bound RNA (median Cy3 signal) to expressed protein (median bodipy signal). Normalized mean values for 10-20 replicates measured in two independent experiments are shown. Error bars represent standard deviation. The grey bars represent binding of HuR-his and the clear bars that of Gus-his, used as a negative control.

In the case of AUUUAUUUAUUUAUUUA (ssRNA) [4A], the binding result is on record as “no binding”.

Values taken from US20150044169, “METHODS OF […] A […] FAMILY VIRAL INFECTION, COMPOSITIONS FOR […] A […] FAMILY VIRAL INFECTION, AND […] ASSAYS FOR […] COMPOSITIONS FOR […] A […] FAMILY VIRAL INFECTION” (The Board of Trustees of the Leland Stanford Junior …, published 2015).
